Experimental findings from the RNAGym collection of RNA variant scans (doi:10.1073/pnas.2313332121) are described below.

B1: TPR t1 (parent)
chain: GACCAAUCUGCCCUCAGAGCUCGAGAACAUCUUCGGAUGCAGAGGAGGCAGGCUUCGGUGGCGCGAUAGCGCCAACGUCCUCAACCUCCAAUGCAUCCCACCACAUGAUGAUGCCUGAAGAGCCUUGGUUUUUUG

Variants of B1 are the subject of the data set. Put plainly: polymerase ribozyme fitness, log enrichment relative to wild type (log ratio); higher = more active; in vitro selection for triplet polymerase activity. The method in brief:
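Fitness measures genotype enrichment against wild-type enrichment on a logarithmic scale, with inverse-variance-weighted averaging of replicates. The logarithm is base 2, and genotypes were kept only with ≥10 input reads and ≥1 read per output in Illumina sequencing. The sequenced libraries came from one triplicate in vitro selection round, including frozen incubation at −7 °C, of PCR-built, transcribed mutant libraries of each subunit of a heterodimeric triplet polymerase ribozyme.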
For the variant G69C C123G, the “polymerase ribozyme fitness (log ratio)” value was found to be 0.685.

For A43U U59G U96A A105U A121C, the “polymerase ribozyme fitness (log ratio)” value is -4.79.

In the case of C3U G52A C62U A121U, the “polymerase ribozyme fitness (log ratio)” value worked out at 1.52.

With C40G C72U G93A, the “polymerase ribozyme fitness (log ratio)” value is -0.859.

In the case of C62U A95U, the “polymerase ribozyme fitness (log ratio)” value was -2.57.

For A24C G65A C85A C101G G113C, the “polymerase ribozyme fitness (log ratio)” value is -6.86.

Take G69C C101A: the “polymerase ribozyme fitness (log ratio)” value is -2.4.

With G45A C85U C94A, the “polymerase ribozyme fitness (log ratio)” value is -2.05.

Take C40U A46U G47A C53G A66C G117C: the “polymerase ribozyme fitness (log ratio)” value is -7.17.

For C53U U87A C97A, the “polymerase ribozyme fitness (log ratio)” value is -5.45.

Turning to C72A G135U, the “polymerase ribozyme fitness (log ratio)” value is -0.828.

Regarding U38G G135U, the “polymerase ribozyme fitness (log ratio)” value was -2.04.

For the variant A18U G48U, the “polymerase ribozyme fitness (log ratio)” value was -2.49.

For the variant C11G C15U G25C A111C A118G, the “polymerase ribozyme fitness (log ratio)” value was -6.56.

Regarding C15U G69C, the “polymerase ribozyme fitness (log ratio)” value was -2.64.

For G45A G63A A95G C101G U130C, the “polymerase ribozyme fitness (log ratio)” value is -3.14.

Regarding G69C G120C, the “polymerase ribozyme fitness (log ratio)” value was -0.251.

For G47A G61U, the “polymerase ribozyme fitness (log ratio)” value is -1.24.

Regarding C72G C88G C115U, the “polymerase ribozyme fitness (log ratio)” value is -3.24.

For the variant U32C C97A C124U U131A, the “polymerase ribozyme fitness (log ratio)” value was -4.33.

On to G61U C79A C99A G120C, for which the “polymerase ribozyme fitness (log ratio)” value was -6.8.

For A50U C76G, the “polymerase ribozyme fitness (log ratio)” value is -1.31.

For the variant G52C G93A G113A A119G, the “polymerase ribozyme fitness (log ratio)” value was -1.29.

Turning to C8U A26U, the “polymerase ribozyme fitness (log ratio)” value was -2.13.

Take C49U C62U G77A U78G C80G A90C G107U C115G G120C: the “polymerase ribozyme fitness (log ratio)” value is -7.16.

For G44C C49U C114U, the “polymerase ribozyme fitness (log ratio)” value is -3.24.

As for G51U G122A, the “polymerase ribozyme fitness (log ratio)” value was -3.78.

Turning to A16U G135U, the “polymerase ribozyme fitness (log ratio)” value was -1.8.

As to A43C C72A U81C, the “polymerase ribozyme fitness (log ratio)” value is -3.09.

For G10C U106C G107C, the “polymerase ribozyme fitness (log ratio)” value is -5.64.

Turning to G35A G71A, the “polymerase ribozyme fitness (log ratio)” value was -4.49.

With G39U C64U A91C C123A, the “polymerase ribozyme fitness (log ratio)” value was -1.57.

Regarding C53A C56A U87C G120C, the “polymerase ribozyme fitness (log ratio)” value was determined as 1.18.

Consider G39A G42A A46G G58A, for which the “polymerase ribozyme fitness (log ratio)” value is -2.47.

In the case of C22U G71U, the “polymerase ribozyme fitness (log ratio)” value is -4.03.

Consider U7C C12A C13A G17A A27C C115U, for which the “polymerase ribozyme fitness (log ratio)” value is -5.21.

In the case of G113A G122C, the “polymerase ribozyme fitness (log ratio)” value was -3.36.

Turning to U38G A90U, the “polymerase ribozyme fitness (log ratio)” value was -1.61.

As for C20G C94U C114A G122U U125G, the “polymerase ribozyme fitness (log ratio)” value is -6.15.

In the case of A18G C123U U132A, the “polymerase ribozyme fitness (log ratio)” value is -2.14.

Consider A41U A50G G77A, for which the “polymerase ribozyme fitness (log ratio)” value is -0.647.

Take A108U C124A: the “polymerase ribozyme fitness (log ratio)” value is -4.18.

G51C C53U C56U C89G U112G: the “polymerase ribozyme fitness (log ratio)” value was -5.96.

As for G58A A90C, the “polymerase ribozyme fitness (log ratio)” value is -1.28.

Regarding C49A G52A G57A U78A, the “polymerase ribozyme fitness (log ratio)” value is -1.73.

Take C15U C104U G117U: the “polymerase ribozyme fitness (log ratio)” value was -0.366.

Take C53U C56A: the “polymerase ribozyme fitness (log ratio)” value was -0.566.

As to A18G G39U C53U G71A G120A, the “polymerase ribozyme fitness (log ratio)” value was -4.4.

As to C40U A43U G57U G63C, the “polymerase ribozyme fitness (log ratio)” value is -3.07.

For G127A G128U, the “polymerase ribozyme fitness (log ratio)” value is -2.41.

In the case of G42U A50U G69U A105G, the “polymerase ribozyme fitness (log ratio)” value is -3.63.

As for C31U C123A, the “polymerase ribozyme fitness (log ratio)” value was -4.45.

Turning to A5U A66U A75G C76A C94A G120A U130G, the “polymerase ribozyme fitness (log ratio)” value was -5.41.

As for U7C G61U, the “polymerase ribozyme fitness (log ratio)” value was found to be 0.179.

As to U7C A83G A84C, the “polymerase ribozyme fitness (log ratio)” value is -1.08.

Consider C49A C53A C79A C85U A111C, for which the “polymerase ribozyme fitness (log ratio)” value was -2.83.

As to C123A U125G, the “polymerase ribozyme fitness (log ratio)” value was -0.261.

As to C8G U14C C79U U87A U112A, the “polymerase ribozyme fitness (log ratio)” value came out at 2.12.

Take C34A G35A C86G U112C: the “polymerase ribozyme fitness (log ratio)” value is -4.41.

Consider G10U C15G G19U G63A G113U C124A, for which the “polymerase ribozyme fitness (log ratio)” value was -5.07.

For A46C U112G G122U G135U, the “polymerase ribozyme fitness (log ratio)” value is -2.04.

As to C15A G117A, the “polymerase ribozyme fitness (log ratio)” value was -2.72.

Turning to G10C U38G C53G G63C A111U C124U U133G, the “polymerase ribozyme fitness (log ratio)” value was -5.15.

As for G17A G52A A118G, the “polymerase ribozyme fitness (log ratio)” value is -4.15.

With U7G G69A C101U, the “polymerase ribozyme fitness (log ratio)” value is -2.81.

C15G G25C A41U U109A: the “polymerase ribozyme fitness (log ratio)” value is -5.74.

As for A18U G61C U112A G122U, the “polymerase ribozyme fitness (log ratio)” value is -6.15.

As for G35A G48C C56A C123G, the “polymerase ribozyme fitness (log ratio)” value was -2.99.

Regarding C8A C101G, the “polymerase ribozyme fitness (log ratio)” value was -1.63.

Consider A43C U55A C62U G93U U96G, for which the “polymerase ribozyme fitness (log ratio)” value is -4.79.

Regarding G36C G44A A74U C79G C101U, the “polymerase ribozyme fitness (log ratio)” value was -4.54.

Turning to A29G A118U, the “polymerase ribozyme fitness (log ratio)” value is -0.684.

Turning to C56G G58A G77A, the “polymerase ribozyme fitness (log ratio)” value was 0.427.

Regarding C49G G57U, the “polymerase ribozyme fitness (log ratio)” value was -0.441.

Take C3U C11A C13G A74G: the “polymerase ribozyme fitness (log ratio)” value is -2.98.

For the variant C62U U116A G128A, the “polymerase ribozyme fitness (log ratio)” value was -5.25.

Regarding A103U G120C C124U, the “polymerase ribozyme fitness (log ratio)” value was -4.96.

G52A U87C: the “polymerase ribozyme fitness (log ratio)” value was determined as 0.43.

In the case of G10U A103G, the “polymerase ribozyme fitness (log ratio)” value is -6.29.

Consider A27U C40U C72G A100C, for which the “polymerase ribozyme fitness (log ratio)” value is -7.09.

Take A6C A18U: the “polymerase ribozyme fitness (log ratio)” value is -2.13.

For the variant C73G A90G G113U A118C, the “polymerase ribozyme fitness (log ratio)” value was -5.26.

Turning to C12U C86A, the “polymerase ribozyme fitness (log ratio)” value is 0.101.

For G93A C99U, the “polymerase ribozyme fitness (log ratio)” value is -4.67.
